Experimental data reported in patent US20180371100A1 (Kyowa Kirin, published 2018).
Substitutions are numbered along the chain they refer to. Where “and” joins values, the source holds several entries; their conditions need not be identical. Equal values may be shown once.

Legend:
FLAG fusion human CRTH2 = target: T1, FLAG fusion human CRTH2 (human, UniProt Q9Y5Y4 1-395); experiment: flow cytometry on FLAG fusion human CRTH2-expressing 3Y1-B cells; logistic fit of Geomean; ± is the standard error
T1 construct: Expressed on rat 3Y1-B cells; also called human CRTH2 with a C terminal to which a FLAG tag was added; not shown: FLAG tag at the C terminal
T1 sequence: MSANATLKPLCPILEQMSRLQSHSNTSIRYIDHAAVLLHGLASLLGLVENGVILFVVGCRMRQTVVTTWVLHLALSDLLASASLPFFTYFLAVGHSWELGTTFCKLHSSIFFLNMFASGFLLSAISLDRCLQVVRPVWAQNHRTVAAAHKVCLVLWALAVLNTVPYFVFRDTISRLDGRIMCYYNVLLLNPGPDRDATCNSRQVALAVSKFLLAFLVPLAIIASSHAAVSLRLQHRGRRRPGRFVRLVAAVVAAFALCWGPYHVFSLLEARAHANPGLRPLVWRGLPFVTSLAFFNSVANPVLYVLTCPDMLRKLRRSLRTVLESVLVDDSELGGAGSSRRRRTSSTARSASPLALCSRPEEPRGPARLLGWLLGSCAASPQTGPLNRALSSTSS
Protocol: FLAG fusion human CRTH2-expressing 3Y1-B cells were peeled using a 0.25% trypsin-EDTA (NACALAI TESQUE, Inc.), washed with PBS, and suspended with SM. Next, the cells were seeded in a 96-well plate such that one well has 1×10⁵ cells. Further, chLym2 or each of the humanized Lym2 antibodies was added at each final concentrations of 50000, 12500, 3125, 781, 195, 49, 12, and 3 ng/mL to cause a reaction at 4° C. for 60 minutes.
After the cells were washed with SM, Goat F(ab′)₂ Anti-Human IgG PE (γchain specific) (Southern Biotech Inc.) diluted 500 times with SM was added to cause a reaction at 4° C. for 60 minutes. The cells were washed with SM and resuspended with 50 μL of SM, and the fluorescent intensity was measured by flow cytometry (BD Biosciences, FACS CantoII).
The data was analyzed by FLowJo 7.65 (Tomy Digital Biology Co., Ltd.), curve fitting of the Geomean value in each concentration was performed using a Logistic curve, and the 50% effective concentration (EC₅₀) value of the binding of chLym2 and each humanized Lym2 antibody and the standard error (SE) value thereof were calculated using R language (Ver. 3.02) which is a language for statistical analysis.

[1] = target: T2, Azami-Green fusion cynomolgus monkey CRTH2 (cynomolgus monkey, UniProt Q9Y5Y4 1-395 (human entry)); experiment: flow cytometry on Azami-Green fusion cynomolgus monkey CRTH2-expressing CHO/DG44 cells, 2-30000 ng/mL
T2 construct: Expressed on CHO/DG44 cells; not shown: Azami-Green tag from vector phmAG1-MNLinker (MBL)
T2 chain: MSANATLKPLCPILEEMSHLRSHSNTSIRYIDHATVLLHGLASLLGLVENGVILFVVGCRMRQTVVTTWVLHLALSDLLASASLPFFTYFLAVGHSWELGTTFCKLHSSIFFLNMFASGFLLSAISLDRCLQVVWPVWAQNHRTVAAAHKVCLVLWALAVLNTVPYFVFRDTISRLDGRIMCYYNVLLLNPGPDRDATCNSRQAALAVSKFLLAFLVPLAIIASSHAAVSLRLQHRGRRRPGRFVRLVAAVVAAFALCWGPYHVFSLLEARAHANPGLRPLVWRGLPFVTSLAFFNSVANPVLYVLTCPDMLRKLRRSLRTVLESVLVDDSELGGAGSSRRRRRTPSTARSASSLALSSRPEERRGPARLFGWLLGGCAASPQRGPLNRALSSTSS
Protocol: The Azami-Green fusion human CRTH2-expressing CHO/DG44 cells and the cynomolgus monkey CRTH2-expressing CHO/DG44 cells established in Example 24 were peeled using 0.02% EDTA solution (NACALAI TESQUE, Inc.), washed with PBS, and suspended with SM. Next, the cells were seeded in a 96-well plate such that each well had 2×10⁵ cells, and humanized Lym2 antibody LV0HV1 or the anti-DNP IgG1 antibody at each of final concentrations 30000, 7500, 1875, 469, 117, 29, 7, and 2 ng/mL were added thereto to cause a reaction at 4° C. for 40 minutes.
After the cells were washed three times with SM, goat anti-Human IgG alexa 647 (Molecular Probes) diluted to a concentration of 10 μg/mL with SM was added thereto at 100 μL/well to perform a reaction at 4° C. for 40 minutes. The cells were washed with SM and resuspended with 100 μL of SM, and the fluorescent intensity was measured by flow cytometry (BD Biosciences, FACS CantoII).

B1: humanized Lym2 antibody LV0HV1 (antibody, V domains shown)
VH: EVQLVESGGGVVQPGRSLRLSCAASGFTFSNYYMAWVRQAPGKGLEWVATISYDGSSTYYRDSVKGRFTISRDNAKNSLYLQMNSLRAEDTATYYCARHRGYYYSGAGYFDYWGQGTMVTVSS
VL: DIVMTQTPLSLPVTPGESASISCRSSQSLEYSDGYTYLEWYLQKPGQSPQVLIYGVSNRFSGVPDRFSGSGSGTDFTLKISRVEAEDVGVYYCFQATHDPLTFGQGTKLEIK
notes: also called humanized anti-human CRTH2 antibody LV0HV1
Q: Which EC50 (FLAG fusion human CRTH2) does the source give for B1 here?
A: 0.78 µg/mL

Q: Does B1 bind [1]?
A: binds

B2: humanized Lym2 antibody LV4HV4 (antibody, V domains shown)
VH: B1 VH with L18M, N77S, T117V
VL: B1 VL with I2V, M4L, P15L, A85P
Q: B2 was tested. Which EC50 (FLAG fusion human CRTH2) did it give?
A: 0.68 µg/mL

B3: rat/human chimeric Lym2 antibody (antibody, V domains shown)
VH: B1 VH with V11L, L18M, R19K, G42K, N77S, S78T, N84D, A88S, T117V
VL: DVVLTQTPVSLSVTLGDQASISCRSSQSLEYSDGYTYLEWYLQKPGQSPQVLIYGVSNRFSGVPDRFIGSGSGTDFTLKISRVEPEDLGVYYCFQATHDPLTFGSGTKLEIK
notes: expressed in FUT8 knockout CHO cells; also called chLym2
Q: For B3, which EC50 (FLAG fusion human CRTH2) is on record?
A: 0.5 µg/mL and 0.54 µg/mL
